Results taken from paper PMC6635525.

What follows are substances tested against TNF receptor-associated factor 2 (TRAF2) (human (endogenous in HEK293)) (UniProt Q12933).
Sequence of UniProt Q12933 (Q12933 whole entry): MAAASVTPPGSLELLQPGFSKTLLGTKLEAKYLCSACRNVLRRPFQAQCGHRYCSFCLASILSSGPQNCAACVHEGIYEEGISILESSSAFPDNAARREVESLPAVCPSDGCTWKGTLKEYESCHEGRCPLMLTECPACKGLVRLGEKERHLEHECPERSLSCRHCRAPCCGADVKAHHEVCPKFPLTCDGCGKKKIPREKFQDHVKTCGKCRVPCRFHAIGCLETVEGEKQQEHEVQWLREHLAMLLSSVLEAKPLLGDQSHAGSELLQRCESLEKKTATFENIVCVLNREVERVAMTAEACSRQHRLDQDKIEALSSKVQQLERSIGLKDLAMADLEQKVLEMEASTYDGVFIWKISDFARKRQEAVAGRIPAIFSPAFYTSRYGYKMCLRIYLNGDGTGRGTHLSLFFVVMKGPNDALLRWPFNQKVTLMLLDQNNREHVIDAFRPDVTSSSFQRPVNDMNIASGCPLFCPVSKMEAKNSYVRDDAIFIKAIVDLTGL

Point of comparison: “GRA15II-51-550 with the deletion AAEE160-163, fused to GFP (from UniProt A0A125YGQ9 51-550) (domain or fragment)”, NF-κB luciferase reporter activity in transiently transfected HEK293 reporter cells, decrease compared to full-length GRA15II-51–550 60%. Against it:
- GRA15II-51-550 with the deletion SQQE430-433, fused to GFP (from UniProt A0A125YGQ9 51-550) (domain or fragment) — the same, 60%
- GRA15II-51-550 with the deletions AAEE160-163/SQQE430-433, fused to GFP (from UniProt A0A125YGQ9 51-550) (domain or fragment) — higher, 75%
